# In patent publication US20040014147A1 (RIGEL PHARMACEUTICALS, published 2004):
# Read-outs that look alike come from different tables or passages of the source. Where no end group is shown, it is not given here.
# Assays:
# human adenosine kinase [1] = target: T1, human adenosine kinase (human, UniProt P55263 22-362); assay: cell-based or functional assay
# human adenosine kinase [2] = target: T1, human adenosine kinase; assay: cell-based or functional assay; remark: listed apart in the source
# T1 sequence (P55263 other isoform, or with tags, fused parts or gaps): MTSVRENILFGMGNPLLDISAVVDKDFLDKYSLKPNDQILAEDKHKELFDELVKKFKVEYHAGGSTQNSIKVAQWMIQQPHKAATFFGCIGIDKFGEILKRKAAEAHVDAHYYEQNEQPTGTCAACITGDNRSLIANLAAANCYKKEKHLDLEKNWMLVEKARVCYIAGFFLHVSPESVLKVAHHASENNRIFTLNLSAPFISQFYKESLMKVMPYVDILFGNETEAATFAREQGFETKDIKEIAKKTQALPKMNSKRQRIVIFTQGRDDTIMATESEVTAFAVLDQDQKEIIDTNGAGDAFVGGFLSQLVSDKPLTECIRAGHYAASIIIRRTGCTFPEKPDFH
Binder,Reporter Ratio (human adenosine kinase [1]),Reporter Ratio (human adenosine kinase [2]),endogenous ε inhibition ratio (human adenosine kinase [2])
"DTMQVQCGVCRSGYVVAFWDVGP (peptide, not shown: large carriers, cysteine pairing not given here; also: expressed as GAL4/BFP-linker-peptide fusion, fusion sequences not given here) [peptide AR02E8 wt]",2.93,1.77,15.3
"DTMQVQCGVCRSGAGVAFWDVGP (peptide, not shown: large carriers) [peptide AR02E8YV]",1.07,–,–

# The next lines start with the values.
Reporter Ratio (human adenosine kinase [1]),Reporter Ratio (human adenosine kinase [2]),endogenous ε inhibition ratio (human adenosine kinase [2]),Binder
1.46,–,–,"DTMQVQCGVCAGGYVVAFWDVGP (peptide, not shown: large carriers) [peptide AR02E8RS]"
1.13,–,–,"DTMQVQCGAGRSGYVVAFWDVGP (peptide, not shown: large carriers) [peptide AR02E8VC]"
